Source: patent US20240294623A1 (SCHOLAR ROCK, published 2024)

How the values were obtained:
[1] = molecular target: T1, hGARP-proTGFβ1 (human, UniProt Q14392 18-627; P01137 30-390, limits assumed); assay: cell-based or functional assay
[2] = molecular target: T2, hLTBP1-proTGFβ1 (human, UniProt Q14766 347-1721; P01137 30-390, limits assumed); assay: cell-based or functional assay
[3] = molecular target: T3, hLTBP3-proTGFβ1 (human, UniProt Q9NS15 44-1303; P01137 30-390, limits assumed); assay: cell-based or functional assay
[4] = molecular target: T4, hLRRC33-proTGFβ1 (human, UniProt Q86YC3 19-650; P01137 30-390, limits assumed); assay: cell-based or functional assay
[5] = molecular target: T1, hGARP-proTGFβ1; assay: MSD-SET, hIgG4
Experimental: (§1) For solution equilibrium titration-based binding assays, protein complexes that comprise one of the presenting molecules such as those shown above may be employed as antigen (presenting molecule-TGFβ1 complex, or an LLC). Test antibodies are allowed to form antigen-antibody complex in solution. Antigen-antibody reaction mixtures are incubated to allow an equilibrium to be reached; the amount of the antigen-antibody complex present in the assay reactions can be measured by suitable means well known in the art. As compared to BLI-based assays, SET-based assays are less affected by on/off rates of the antigen-antibody complex, allowing sensitive detection of very high affinity interactions.

[6] = molecular target: T2, hLTBP1-proTGFβ1; assay: MSD-SET, hIgG4
Experimental: as §1

[7] = molecular target: T3, hLTBP3-proTGFβ1; assay: MSD-SET, hIgG4
Experimental: as §1

[8] = molecular target: T4, hLRRC33-proTGFβ1; assay: MSD-SET, hIgG4
Experimental: as §1

[9] = molecular target: T1, hGARP-proTGFβ1; assay: BLI (Octet)
[10] = molecular target: T2, hLTBP1-proTGFβ1; assay: BLI (Octet)
[11] = molecular target: T3, hLTBP3-proTGFβ1; assay: BLI (Octet)
[12] = molecular target: T4, hLRRC33-proTGFβ1; assay: BLI (Octet)

T1 sequence (Q14392 18-627 limits assumed, chain 1 of 2): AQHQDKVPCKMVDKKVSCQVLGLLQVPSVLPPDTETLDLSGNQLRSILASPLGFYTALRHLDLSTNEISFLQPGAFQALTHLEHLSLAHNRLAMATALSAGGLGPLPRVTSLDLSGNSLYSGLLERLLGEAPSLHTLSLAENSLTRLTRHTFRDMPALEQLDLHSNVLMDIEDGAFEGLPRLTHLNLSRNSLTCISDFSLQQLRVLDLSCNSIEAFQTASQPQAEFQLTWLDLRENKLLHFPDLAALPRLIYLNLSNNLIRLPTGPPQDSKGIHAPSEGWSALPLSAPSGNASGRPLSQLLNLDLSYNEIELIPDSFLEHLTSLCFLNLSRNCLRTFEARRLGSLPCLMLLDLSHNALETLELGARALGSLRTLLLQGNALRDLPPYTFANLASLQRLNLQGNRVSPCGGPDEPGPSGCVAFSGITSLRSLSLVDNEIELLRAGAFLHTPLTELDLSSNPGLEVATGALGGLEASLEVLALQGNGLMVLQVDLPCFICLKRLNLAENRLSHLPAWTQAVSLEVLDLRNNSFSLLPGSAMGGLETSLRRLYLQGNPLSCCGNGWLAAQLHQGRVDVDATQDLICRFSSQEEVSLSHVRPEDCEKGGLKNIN
T1 sequence (P01137 30-390 limits assumed, chain 2 of 2): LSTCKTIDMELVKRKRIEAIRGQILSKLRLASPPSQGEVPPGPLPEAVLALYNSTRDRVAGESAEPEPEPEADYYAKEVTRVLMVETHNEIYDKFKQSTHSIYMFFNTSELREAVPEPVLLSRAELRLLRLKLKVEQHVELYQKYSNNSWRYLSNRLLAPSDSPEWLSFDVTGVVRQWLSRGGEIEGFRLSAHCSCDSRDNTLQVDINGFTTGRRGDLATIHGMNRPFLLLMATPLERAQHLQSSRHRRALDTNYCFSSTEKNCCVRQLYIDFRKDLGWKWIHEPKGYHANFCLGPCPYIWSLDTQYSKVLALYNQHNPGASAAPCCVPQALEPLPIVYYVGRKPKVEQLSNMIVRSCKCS
T4 sequence (Q86YC3 19-650 limits assumed, chain 1 of 2): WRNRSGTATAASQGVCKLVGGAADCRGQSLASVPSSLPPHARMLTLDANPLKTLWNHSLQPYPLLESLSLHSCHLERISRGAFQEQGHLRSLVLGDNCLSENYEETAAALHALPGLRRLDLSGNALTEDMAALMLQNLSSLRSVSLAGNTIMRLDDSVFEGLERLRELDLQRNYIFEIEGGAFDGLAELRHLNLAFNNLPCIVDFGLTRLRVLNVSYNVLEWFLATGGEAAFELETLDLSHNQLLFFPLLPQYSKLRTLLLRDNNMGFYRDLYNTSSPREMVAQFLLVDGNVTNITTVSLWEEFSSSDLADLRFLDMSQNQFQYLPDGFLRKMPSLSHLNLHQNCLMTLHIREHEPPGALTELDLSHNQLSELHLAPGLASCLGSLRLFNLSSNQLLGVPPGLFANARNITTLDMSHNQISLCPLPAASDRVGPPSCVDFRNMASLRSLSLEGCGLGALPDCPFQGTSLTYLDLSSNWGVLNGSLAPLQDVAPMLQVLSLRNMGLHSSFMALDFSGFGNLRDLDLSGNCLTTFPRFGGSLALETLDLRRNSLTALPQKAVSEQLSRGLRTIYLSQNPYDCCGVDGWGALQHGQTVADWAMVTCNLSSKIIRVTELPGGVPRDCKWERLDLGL
T4 sequence (P01137 30-390 limits assumed, chain 2 of 2): as the sequence (P01137 30-390 limits assumed, chain 2 of 2) above
T2 sequence (Q14766 347-1721 limits assumed, chain 1 of 2): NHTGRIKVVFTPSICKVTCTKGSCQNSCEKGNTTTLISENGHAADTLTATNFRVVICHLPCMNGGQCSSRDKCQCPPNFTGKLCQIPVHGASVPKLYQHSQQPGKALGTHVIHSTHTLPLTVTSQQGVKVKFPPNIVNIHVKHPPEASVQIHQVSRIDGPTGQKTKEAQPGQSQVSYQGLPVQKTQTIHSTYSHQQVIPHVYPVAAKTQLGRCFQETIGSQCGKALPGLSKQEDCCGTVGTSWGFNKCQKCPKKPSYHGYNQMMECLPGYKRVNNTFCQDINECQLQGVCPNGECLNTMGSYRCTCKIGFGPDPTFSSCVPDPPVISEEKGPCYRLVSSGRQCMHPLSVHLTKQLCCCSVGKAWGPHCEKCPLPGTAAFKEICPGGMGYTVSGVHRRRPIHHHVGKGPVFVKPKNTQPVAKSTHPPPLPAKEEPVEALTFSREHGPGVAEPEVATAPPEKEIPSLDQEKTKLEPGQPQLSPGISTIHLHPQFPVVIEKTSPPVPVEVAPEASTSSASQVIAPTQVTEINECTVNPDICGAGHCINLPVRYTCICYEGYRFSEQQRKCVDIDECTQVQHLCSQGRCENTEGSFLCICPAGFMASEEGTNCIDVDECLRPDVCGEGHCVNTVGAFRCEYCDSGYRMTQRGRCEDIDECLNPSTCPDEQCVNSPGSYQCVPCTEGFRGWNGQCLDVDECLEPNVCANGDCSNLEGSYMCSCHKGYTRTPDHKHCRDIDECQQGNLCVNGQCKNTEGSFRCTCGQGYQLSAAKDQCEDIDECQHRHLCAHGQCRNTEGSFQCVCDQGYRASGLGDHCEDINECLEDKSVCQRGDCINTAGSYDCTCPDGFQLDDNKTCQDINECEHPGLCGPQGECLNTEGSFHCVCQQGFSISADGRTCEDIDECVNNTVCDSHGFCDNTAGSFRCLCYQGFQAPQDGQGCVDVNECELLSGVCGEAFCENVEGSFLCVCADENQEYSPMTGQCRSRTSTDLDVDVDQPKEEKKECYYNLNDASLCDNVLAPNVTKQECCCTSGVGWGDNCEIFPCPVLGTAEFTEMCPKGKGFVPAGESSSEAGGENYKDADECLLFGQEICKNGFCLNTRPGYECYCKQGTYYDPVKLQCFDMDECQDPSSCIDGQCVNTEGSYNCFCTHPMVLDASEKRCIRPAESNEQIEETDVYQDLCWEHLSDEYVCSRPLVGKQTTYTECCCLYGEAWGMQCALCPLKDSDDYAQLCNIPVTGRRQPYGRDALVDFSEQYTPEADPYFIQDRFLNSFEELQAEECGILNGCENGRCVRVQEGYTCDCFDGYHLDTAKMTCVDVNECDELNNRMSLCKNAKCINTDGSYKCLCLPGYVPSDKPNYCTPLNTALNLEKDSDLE
T2 sequence (P01137 30-390 limits assumed, chain 2 of 2): as the sequence (P01137 30-390 limits assumed, chain 2 of 2) above
T3 sequence (Q9NS15 44-1303 limits assumed, chain 1 of 2): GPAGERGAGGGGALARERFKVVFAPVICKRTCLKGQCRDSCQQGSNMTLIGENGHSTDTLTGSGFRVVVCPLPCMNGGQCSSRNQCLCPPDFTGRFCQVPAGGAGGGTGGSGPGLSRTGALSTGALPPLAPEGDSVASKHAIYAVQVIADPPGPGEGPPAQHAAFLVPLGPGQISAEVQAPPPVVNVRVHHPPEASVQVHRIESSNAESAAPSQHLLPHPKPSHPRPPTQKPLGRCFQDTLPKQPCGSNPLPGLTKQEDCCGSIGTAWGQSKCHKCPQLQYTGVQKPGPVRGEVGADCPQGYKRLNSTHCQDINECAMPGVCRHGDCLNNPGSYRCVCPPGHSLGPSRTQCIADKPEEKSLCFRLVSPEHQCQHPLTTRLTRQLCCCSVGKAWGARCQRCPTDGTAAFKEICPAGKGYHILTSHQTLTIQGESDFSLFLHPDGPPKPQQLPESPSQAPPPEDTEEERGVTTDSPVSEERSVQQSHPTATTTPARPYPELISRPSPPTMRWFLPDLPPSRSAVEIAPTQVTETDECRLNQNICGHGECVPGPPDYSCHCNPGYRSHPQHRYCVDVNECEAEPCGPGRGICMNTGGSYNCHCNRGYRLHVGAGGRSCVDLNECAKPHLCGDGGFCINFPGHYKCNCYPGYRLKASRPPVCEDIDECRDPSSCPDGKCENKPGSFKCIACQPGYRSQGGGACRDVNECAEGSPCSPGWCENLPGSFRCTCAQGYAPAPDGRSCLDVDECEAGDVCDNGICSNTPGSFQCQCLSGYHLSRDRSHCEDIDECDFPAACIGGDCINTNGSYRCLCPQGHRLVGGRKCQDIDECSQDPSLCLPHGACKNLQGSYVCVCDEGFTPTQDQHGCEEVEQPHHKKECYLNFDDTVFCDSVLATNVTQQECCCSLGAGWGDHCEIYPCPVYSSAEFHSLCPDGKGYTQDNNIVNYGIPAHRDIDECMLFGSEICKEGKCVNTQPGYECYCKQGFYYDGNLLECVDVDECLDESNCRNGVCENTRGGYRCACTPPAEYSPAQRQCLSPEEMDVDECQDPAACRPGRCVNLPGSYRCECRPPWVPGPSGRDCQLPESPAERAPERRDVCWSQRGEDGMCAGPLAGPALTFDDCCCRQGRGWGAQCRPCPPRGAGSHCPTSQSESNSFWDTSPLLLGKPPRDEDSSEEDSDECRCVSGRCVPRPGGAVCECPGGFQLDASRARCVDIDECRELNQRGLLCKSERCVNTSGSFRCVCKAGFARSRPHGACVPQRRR
T3 sequence (P01137 30-390 limits assumed, chain 2 of 2): as the sequence (P01137 30-390 limits assumed, chain 2 of 2) above

Row | IC50, reporter cell assay [1] | IC50, reporter cell assay [2] | IC50, reporter cell assay [3] | IC50, reporter cell assay [4] | Kd [5] | Kd [6] | Kd [7] | Kd [8] | Kd [9] | Kd [10] | Kd [11] | Kd [12] | Binder
1 | 0.8 nM | 5.2 nM | 5.6 nM | 3.5 nM | 2.5 nM | 4.6 nM | 5.5 nM | 2.1 nM | – | – | – | – | Ab4 (antibody, V domains shown) VH: EVQLVESGGGLVQPGGSLRLSCAASGFTFSSYSMNWVRQAPGKGLEWVSYISSSSSTIYYADSVKGRFTISRDNAKNSLYLQMNSLRAEDTAVYYCARGVLDYGDMLDPWGQGTLVTVSS VL: DIQMTQSPSSLSASVGDRVTITCQASQDITNYLNWYQQKPGKAPKLLIYDASNLETGVPSRFSGSGSGTDFTFTISSLQPEDIATYYCQQADNHPPWTFGGGTKVEIK
2 | 0.3 nM | 0.7 nM | 0.7 nM | 0.3 nM | 0.014 nM | 0.028 nM | 0.023 nM | 0.13 nM | 0.625 nM | 0.221 nM | 0.173 nM | 0.36 nM | Ab26 (antibody, V domains shown) VH: EVQLVESGGGLVQPGGSLRLSCAASGFTFSSFSMDWVRQAPGKGLEWVSYISPDASTIYYADSVKGRFTISRDNAKNTLYLQMNSLRAEDTAVYYCARGVLDYGDMLDPWGQGTLVTVSS VL: DIQMTQSPSSLSASVGDRVTITCQASQDITNYLNWYQQKPGKAPKLLIYDASNLETGVPSRFSGSGSGTDFTFTISSLQPEDIATYYCQQADNHPPWTFGGGTKVEIK
3 | 0.4 nM | 6.1 nM | 0.51 nM | 0.7 nM | – | – | – | – | 0.488 nM | 0.217 nM | 0.152 nM | 0.409 nM | Ab25 (antibody, V domains shown) VH: EVQLVESGGGLVQPGGSLRLSCAASGFTFGSFSMDWVRQAPGKGLEWVSYISPDASTIYYADSVKGRFTISRDNAKNSLYLQMNSLRAEDTAVYYCARGVLDYGDMLDPWGQGTLVTVSS VL: DIQMTQSPSSLSASVGDRVTITCQASQDITNYLNWYQQKPGKAPKLLIYDASNLETGVPSRFSGSGSGTDFTFTISSLQPEDIATYYCQQADNHPPWTFGGGTKVEIK
4 | 0.3 nM | 0.5 nM | 0.8 nM | 0.5 nM | 0.0055 nM | 0.012 nM | 0.011 nM | 0.043 nM | 0.307 nM | 0.189 nM | 0.121 nM | 0.302 nM | Ab29 (antibody, V domains shown) VH: EVQLVESGGGLVQPGRSLRLSCAASGFTFSSFAMNWVRQAPGKGLEWVSYISPDASTIYYAGSVKGRFTISRDNAKNSLYLQMNSLRAEDTAVYYCVRAVLDYGDMLDPWGQGTLVTVSS VL: DIQMTQSPSSLSASVGDRVTITCQASQDITNYLNWYQQKPGKAPKLLIYDASNLETGVPSRFSGSGSGTDFTFTISSLQPEDIATYYCQQADNHPPWTFGGGTKVEIK
5 | 0.2 nM | 1.6 nM | 1.1 nM | 0.7 nM | 0.0078 nM | 0.011 nM | 0.007 nM | 0.046 nM | 0.265 nM | 0.179 nM | 0.111 nM | 0.339 nM | Ab33 (antibody, V domains shown) VH: EVQLVESGGGLVQPGGSLRLSCAASGFTFSSFSMNWVRQAPGKGLEWVSYISPSADTIYYADSVKGRFTISRDNAKNTLYLQMNSLRAEDTAVYYCAHGVLDYGDMLDPWGQGTLVTVSS VL: DIQMTQSPSSLSASVGDRVTITCQASQDITNYLNWYQQKPGKAPKLLIYDASNLETGVPSRFSGSGSGTDFTFTISSLQPEDIATYYCQQADNHPPWTFGGGTKVEIK
